# Data as given in publication PMC11342776, “Protein kinase Hsl1 phosphorylates Pah1 to inhibit phosphatidate phosphatase activity and regulate lipid synthesis in Saccharomyces cerevisiae” (The Journal of Biological Chemistry, 2024).
# B1: Hsl1 (Saccharomyces cerevisiae S288C) (protein)
# chain: MTGHVSKTSHVPKGRPSSLAKKAAKRAMAKVNSNPKRASGHLERVVQSVNDATKRLSQPDSTVSVATKSSKRKSRDTVGPWKLGKTLGKGSSGRVRLAKNMETGQLAAIKIVPKKKAFVHCSNNGTVPNSYSSSMVTSNVSSPSIASREHSNHSQTNPYGIEREIVIMKLISHTNVMALFEVWENKSELYLVLEYVDGGELFDYLVSKGKLPEREAIHYFKQIVEGVSYCHSFNICHRDLKPENLLLDKKNRRIKIADFGMAALELPNKLLKTSCGSPHYASPEIVMGRPYHGGPSDVWSCGIVLFALLTGHLPFNDDNIKKLLLKVQSGKYQMPSNLSSEARDLISKILVIDPEKRITTQEILKHPLIKKYDDLPVNKVLRKMRKDNMARGKSNSDLHLLNNVSPSIVTLHSKGEIDESILRSLQILWHGVSRELITAKLLQKPMSEEKLFYSLLLQYKQRHSISLSSSSENKKSATESSVNEPRIEYASKTANNTGLRSENNDVKTLHSLEIHSEDTSTVNQNNAITGVNTEINAPVLAQKSQFSINTLSQPESDKAEAEAVTLPPAIPIFNASSSRIFRNSYTSISSRSRRSLRLSNSRLSLSASTSRETVHDNEMPLPQLPKSPSRYSLSRRAIHASPSTKSIHKSLSRKNIAATVAARRTLQNSASKRSLYSLQSISKRSLNLNDLLVFDDPLPSKKPASENVNKSEPHSLESDSDFEILCDQILFGNALDRILEEEEDNEKERDTQRQRQNDTKSSADTFTISGVSTNKENEGPEYPTKIEKNQFNMSYKPSENMSGLSSFPIFEKENTLSSSYLEEQKPKRAALSDITNSFNKMNKQEGMRIEKKIQREQLQKKNDRPSPLKPIQHQELRVNSLPNDQGKPSLSLDPRRNISQPVNSKVESLLQGLKFKKEPASHWTHERGSLFMSEHVEDEKPVKASDVSIESSYVPLTTVATSSRDPSVLAESSTIQKPMLSLPSSFLNTSMTFKNLSQILADDGDDKHLSVPQNQSRSVAMSHPLRKQSAKISLTPRSNLNANLSVKRNQGSPGSYLSNDLDGISDMTFAMEIPTNTFTAQAIQLMNNDTDNNKINTSPKASSFTKEKVIKSAAYISKEKEPDNSDTNYIPDYTIPNTYDEKAINIFEDAPSDEGSLNTSSSESDSRASVHRKAVSIDTMATTNVLTPATNVRVSLYWNNNSSGIPRETTEEILSKLRLSPENPSNTHMQKRFSSTRGSRDSNALGISQSLQSMFKDLEEDQDGHTSQADILESSMSYSKRRPSEESVNPKQRVTMLFDEEEEESKKVGGGKIKEEHTKLDNKISEESSQLVLPVVEKKENANNTENNYSKIPKPSTIKVTKDTAMESNTQTHTKKPILKSVQNVEVEEAPSSDKKNWFVKLFQNFSSHNNATKASKNHVTNISFDDAHMLTLNEFNKNSIDYQLKNLDHKFGRKVVEYDCKFVKGNFKFKIKITSTPNASTVITVKKRSKHSNTSSNKAFEKFNDDVERVIRNAGRS
# notes: full-length with C-terminal TAP tag kept (chromosomal HSL1-TAP); IgG-Sepharose purified from S. cerevisiae, endogenously phosphorylated; ~190 kDa on gel
# Substrate: Nc1ncnc2c1ncn2[C@@H]1O[C@H](COP(=O)(O)OP(=O)(O)OP(=O)(O)O)[C@@H](O)[C@H]1O
# Test: purified protein
# Type: biochemical, Saccharomyces cerevisiae
# Conditions: 500 nM Pah1 as protein substrate, 10 mM MgCl2, 2 mM DTT, pH 7.5, 30 °C, labelled compound
protein,measurement,value
B1,Km,31 µM
